The chains are these.
B1: Cv2.3194 IgG1 (antibody)
heavy: EVQLVESGGGLIQPGGSLRLSCAASGITVTSNYMSWVRQAPGKGLEWVSVIYPGGSTFYADSVKGRFTISRDNSKNTLYLQMNSLRAEDTAVYYCARDLVVYGMDVWGQGTTVTVSSASTKGPSVFPLAPSSKSTSGGTAALGCLVKDYFPEPVTVSWNSGALTSGVHTFPAVLQSSGLYSLSSVVTVPSSSLGTQTYICNVNHKPSNTKVDKKVEPKSCDKTHTCPPCPAPELLGGPSVFLFPPKPKDTLMISRTPEVTCVVVDVSHEDPEVKFNWYVDGVEVHNAKTKPREEQYNSTYRVVSVLTVLHQDWLNGKEYKCKVSNKALPAPIEKTISKAKQPREPQVYTLPPSRDELTKNQVSLTCLVKGFYPSDIAVEWESNGQPENNYKTTPPVLDSDGSFFLYSKLTVDKSRWQQGNVFSCSVMHEALHNHYTQKSLSLSPGK
light: EIVLTQSPGTLSLSPGERATLSCRASQSVSSSYLAWYQQKPGQAPRLLIYGASSRATGIPGRFSGSGSGTDFTLTISRLEPEDFAIYYCQQGVTFGGGTKVEIKRTVAAPSVFIFPPSDEQLKSGTASVVCLLNNFYPREAKVQWKVDNALQSGNSQESVTEQDSKDSTYSLSSTLTLSKADYEKHKVYACEVTHQGLSSPVTKSFNRGEC
B2: Cv2.3235 IgG1 (antibody)
heavy: EVQLVESGGGLIQPGGSLRLSCAASGFTVSRNYMSWVRQAPGKGLEWVSVIYSGGSTFYADSVKGRFTISRDNSKNTLYLQMNSLRAEDTAVYYCARDGDYYGMDVWGQGTTVTVSSASTKGPSVFPLAPSSKSTSGGTAALGCLVKDYFPEPVTVSWNSGALTSGVHTFPAVLQSSGLYSLSSVVTVPSSSLGTQTYICNVNHKPSNTKVDKKVEPKSCDKTHTCPPCPAPELLGGPSVFLFPPKPKDTLMISRTPEVTCVVVDVSHEDPEVKFNWYVDGVEVHNAKTKPREEQYNSTYRVVSVLTVLHQDWLNGKEYKCKVSNKALPAPIEKTISKAKQPREPQVYTLPPSRDELTKNQVSLTCLVKGFYPSDIAVEWESNGQPENNYKTTPPVLDSDGSFFLYSKLTVDKSRWQQGNVFSCSVMHEALHNHYTQKSLSLSPGK
light: DIQMTQSPSFLSASVGDRVTITCRASQGISSFLAWYQQKPGKAPKLLIYGASTLQSGVTSRFSGSGSGTEFTLTISSLQPEDFATYYCQRLDSYPPITFGQGTRLEIKRTVAAPSVFIFPPSDEQLKSGTASVVCLLNNFYPREAKVQWKVDNALQSGNSQESVTEQDSKDSTYSLSSTLTLSKADYEKHKVYACEVTHQGLSSPVTKSFNRGEC
B3: Cv2.5213 IgG1 (antibody)
heavy: EVQLVESGGGLIQPGGSLRLSCAASGFTVSSNYMSWVRQAPGKGLEWVSLIYSGGSTYYADSVKGRFTISRDNSKNTLYLQMNSLRAEDTAVYYCARDLNYYGMDVWGQGATVTVSSASTKGPSVFPLAPSSKSTSGGTAALGCLVKDYFPEPVTVSWNSGALTSGVHTFPAVLQSSGLYSLSSVVTVPSSSLGTQTYICNVNHKPSNTKVDKKVEPKSCDKTHTCPPCPAPELLGGPSVFLFPPKPKDTLMISRTPEVTCVVVDVSHEDPEVKFNWYVDGVEVHNAKTKPREEQYNSTYRVVSVLTVLHQDWLNGKEYKCKVSNKALPAPIEKTISKAKQPREPQVYTLPPSRDELTKNQVSLTCLVKGFYPSDIAVEWESNGQPENNYKTTPPVLDSDGSFFLYSKLTVDKSRWQQGNVFSCSVMHEALHNHYTQKSLSLSPGK
light: not shown
B4: Cv2.1353 IgG1 (antibody)
heavy: EVQLVESGGGLVQPGGSLRLSCAASGVTVSSNYMNWVRQAPGKGLEWVSVIYSGGSTFYADSVKGRFIISRDNSKNTLYLQMNSLKTEDTAVYYCARDLGPMGFDIWGQGTMVTVSSASTKGPSVFPLAPSSKSTSGGTAALGCLVKDYFPEPVTVSWNSGALTSGVHTFPAVLQSSGLYSLSSVVTVPSSSLGTQTYICNVNHKPSNTKVDKKVEPKSCDKTHTCPPCPAPELLGGPSVFLFPPKPKDTLMISRTPEVTCVVVDVSHEDPEVKFNWYVDGVEVHNAKTKPREEQYNSTYRVVSVLTVLHQDWLNGKEYKCKVSNKALPAPIEKTISKAKQPREPQVYTLPPSRDELTKNQVSLTCLVKGFYPSDIAVEWESNGQPENNYKTTPPVLDSDGSFFLYSKLTVDKSRWQQGNVFSCSVMHEALHNHYTQKSLSLSPGK
light: DIQMTQSPSFLSASVGDRVTITCRASQGISSYLAWYQQKPGKAPKLLIYAASTLQSGVPSRFSGSGSGTEFTLTISSLQPEDFATYYCQQLNSDPPVTFGPGTKVDIKRTVAAPSVFIFPPSDEQLKSGTASVVCLLNNFYPREAKVQWKVDNALQSGNSQESVTEQDSKDSTYSLSSTLTLSKADYEKHKVYACEVTHQGLSSPVTKSFNRGEC

The assay addresses SARS-CoV-2 RBD结构域 (wild type) (SARS-CoV-2). Nature of the assay: SPR (Biacore), antibody coupled to CM5 chip, viral protein as analyte, 25°C. As to conditions: remark: other sources report otherwise.
On to B1, for which the Kd – broadly, the concentration at which binding is half-saturated – is less than 1000 nM.

Molecule B2 returned a Kd of less than 1000 nM.

B3 showed a Kd of less than 1000 nM.

In turn, B4 registered an equilibrium dissociation constant (Kd) of less than 1000 nM.

Source of the values: CN117836322A.
